According to the DeepSol protein solubility set:

Assay: soluble on expression in E. coli; label from the status in PepcDB or PDB records

Which “soluble on expression in E. coli” value does the source give for “MNEKHPGPLVVSGKLSDGERMKSESNFLRGTIAEDLNNGLTGGFSGDNFLLIRFHGMYQQDDRDIRAERAEQKLEPRHAMMLRCRLPGGIITPQQWLGIDKFAADNTLYGSIRITNRQTFQFHGILKGNVKPAHQLLNELGLDALATANDVNRNVLCTSNPVESALHQEAYEWAKKISEHLLPRTRAYAEIWLDAEKVATTDEEPILGATYLPRKFKTTVVIPPQNDVDLHANDLNFVAVADKGKLIGFNVLVGGGLSIAHGDKNTYPRKASEFGYIPLKHTLAIAEAVVTTQRDWGNRTDRKNAKTKYTLERVGVETFKAEVEKRAGVSFSAIKPYQFIGRGDRIGWVKGVDKKWHLTLFVENGRLLDYPGRSLKTGVAEIAKIHQGDFRLTANQNLIVAGVPEKDKARIEALAREHGLMDDNVTSQRENSMACVSFPTCPLAMAEAERFLPEFVTRVEGILQQHGLADEHIVLRVTGCPNGCGRALLAEVGLVGKAVGRYNLHLGGNREGTRIPRMYRENITADEILLITDQLVGRWAKERHVDEGFGDFVIRAGVIAPVIDSARDFYDVQEAM” here?
The value was “not soluble”.

With “MIREDEVRKLVGEMREPFLQRPLGELDAVKEIKIKPEKRHISVKVALAKTGTAEQMQIQQEIVNVLKGAGAETVGLRFEELPEETVAKFRAPSAEKKTLLNMDNPPVFLAVASGKGGVGKSTVSVNLAISLARLGKKVGLIDADIYGFSVPDMMGITVRPTIEGEKLLPVERFGVKVMSMGFFVEENAPVVWRGPMLGKMLNNFFHEVEWGEVDYIVLDLPPGTGDVALDVHTMLPSCKEIIVSTPHPTAAFVAARAGSMAIKTDHEVVGVIENMAYYESAKTGEREYVFGKGGGDKLAEELNVPLLGRIPLKQPDWDKDQFAPSVYDENHPIGEIYQDIAKKIDAKMSVQVLEHHHHHH” as the sequence, how does the “soluble on expression in E. coli” value read?
Its value is “soluble”.

For “MSLTILAIDTSNYTLGIALLREDTVIAEYITYLKKNHSVRAMPAVHSLLNDCDMAPQDLSKIVVAKGPGSYTGVRIGVTLAKTLAWSLDIPISAVSSLETLAANGRHFDGLISPIFDARRGQVYTGLYQYKNGLLEQVVPDQNVMLADWLEMLKEKDRPVLFLGHDTSLHKQMIEDVLGTKGFIGTAAQHNPRPSELAFLGKEKEAADVHGLVPDYLRLAEAEAKWIESQKEGHHHHHH”, which “soluble on expression in E. coli” value is on record?
The value was “soluble”.

Which “soluble on expression in E. coli” value does the source give for “MGIHLFWDSRVPVGLSRPVSEELSAVLEMPVSRIDDGIFPLEGFDPVRNQYDAVKVLLKLDMFRRRMPQIFKPADMDLEFYNKFNHLHEKILLVTPGDLYEPLADFVFGLAYPKLGVAIVSPHRLQNEFYGKYADDSALIDRIVKEGAHEIGHLFGLGHCDNPGCIMYCPRNLDELDRKRKYFCGKCRVQLNGDTLEDDLFSLEHHHHHH” here?
The value was “soluble”.

For “MGSDKIHHHHHHMKNLPSLKNLYYLVHLHQEQNFNRAAKMCFVSQSTLSSGIQNLEEQLGYQLIERDHKSFMFTAIGEEVVERARNILTNVDDLVELVKNQGEPMTGEIRLGCIPTIAPFLLSRVVKLCQQDYPKLSLLLKEDTTERLLDALAKGELDLLILALPVDTSGFHSMKVGIDPFKMVMHKEVSQQFLQPIDYQKMPDESIFLLQAEHCITGHAITACQLGDSAKINPFAATSLHTLVQMVNSKLGTTFLPQMAIDTGILTDTDLVAMDPPGEAPYRDIGLVWRQTTSRISTFRTLGLAIQQKLLAQSLPS”, which “soluble on expression in E. coli” value is on record?
The value was “not soluble”.

Which “soluble on expression in E. coli” value does the source give for “MSAIENFDAHTPMMQQYLRLKAQHPEILLFYRMGDFYALFYDDAKRASQLLDISLTKRGASAGEPIPMAGIPYHAVENYLAKLVNQGESVAICEQIGDPATSKGPVERKVVRIVTPGTISDEALLQERQDNLLAAIWQDSKGFGYATLDISSGRFRLSEPADRETMAAELQRTNPAELLYAEDFAEMSLIEGRRGLRRRPLWEFEIDTARQQLNLQFGTRDLVGFGVENAPRGLCAAGCLLQYAKDTQRTTLPHIRSITMEREQDSIIMDAATRRNLEITQNLAGGAENTLASVLDCTVTPMGSRMLKRWLHMPVRDTRVLLERQQTIGALQDFTAGLQPVLRQVGDLERILARLALRTARPRDLARMRHAFQQLPELRAQLETVDSAPVQALREKMGEFAELRDLLERAIIDTPPVLVRDGGVIASGYNEELDEWRALADGATDYLERLEVRERERTGLDTLKVGFNAVHGYYIQISRGQSHLAPINYMRRQTLKNAERYIIPELKEYEDKVLTSKGKALALEKQLYEELFDLLLPHLEALQQSASALAELDVLVNLAERAYTLNYTCPTFIDKPGIRITEGRHPVVEQVLNEPFIANPLNLSPQRRMLIITGPNMGGKSTYMRQTALIALMAYIGSYVPAQKVEIGPIDRIFTRVGAADDLASGRSTFMVEMTETANILHNATEYSLVLMDEIGRGTSTYDGLSLAWACAENLANKIKALTLFATHYFELTQLPEKMEGVANVHLDALEHGDTIAFMHSVQDGAASKSYGLAVAALAGVPKEVIKRARQKLRELESIS” here?
Its value is “soluble”.

With “AHHHHHHGSGKRVVIALGGNALQQRGQKGSYEEMMDNVRKTARQIAEIIARGYEVVITHGNGPQVGSLLLHMDAGQATYGIPAQPMDVAGAMSQGWIGYMIQQALKNELRKRGMEKKVVTIITQTIVDKNDPAFQNPTKPVGPFYDEETAKRLAREKGWIVKEDSGRGWRRVVPSPDPKGHVEAETIKKLVERGVIVIASGGGGVPVILEDGEIKGVEAVIDKDLAGEKLAEEVNADIFMILTDVNGAALYYGTEKEQWLREVKVEELRKYYEEGHFKAGSMGPKVLAAIRFIEWGGERAIIAHLEKAVEALEGKTGTQVLP” as the sequence, how does the “soluble on expression in E. coli” value read?
Its value is “soluble”.

With “MSLAQGDTEVPTLYLWKTGPWGRCMGDDCGPGGIQTRAVWCAHVEGWTTLHTNCKQAVRPSNQQNCFKVCDWHKELYDWRLGTWDRCQPVISKSLEKSRECVKGEEGIQVREIMCIQKDKDIPAEDIICEYFEPKPLLEQACLIPCQKDCMVSEFSPWSECSRTCGSGLQHRTRHVVAPPQYGGSGCPNLTEFQVCQSNPCEEDESLYSLQVGPWSACSVPHTRQARQARRRGKNKEREKERGKAVKDPEARELIKKKRNRNRQNRQENRYWDIQIGYQTRDVTCLNRTGKSADLSFCQQERLPMTFQSCVITKECQVSEWLEWSPCSKTCHDVTSPTGTRVRTRTITQFPIGSEKECPALEEKEPCVSQGDGAVLCATYGWRTTEWTECHVDPLLSQQDKRRANQTALCGGGVQTREIYCIQTNDNMLSHGNTEGHHHHHH” as the sequence, how does the “soluble on expression in E. coli” value read?
The value was “not soluble”.

Which “soluble on expression in E. coli” value does the source give for “MGSDKIHHHHHHMKLPRFGVEEWLNVHEKNATYDIAGVSIAALSLEELFQLTQQDLNAFFQELGQKKMDYGWIEGSPQFKAEVCKLYKNIQAEQVLQTNGATGANMLALYALIEPEDHVISMYPTYQQLYDIPKSLGAQVDLWQIKEDSKWLPDLDELRQLIRPNTKMICINNAHNPTGAIMDEAYLKELVAIVESCGAYILSDEVYKTFASDKNIPAIVDLYDKGISVDSLSKAYSLPGIRVGWVASNKKVTAVLRDYRDYTMICAGVFDDMLASFALKHRQAIIQRNQEIVVDNLQILQDWLAKEPRAQAILPDHVSTSLIKLNVPMLIETFCLKLLSDYGVLVVPGNRFDIEGHVRLGYCGDTEILKAGLTRLSQCLRQFDEQAKIT” here?
Its value is “not soluble”.

For “MSEKTMGPRQSRPGILTPAQERVAQAIARLGPEISLTDISRMVGGHPNASRQHIKTLENSGYISATQKRGAAGRPAQLYSITPEGLRALAGNATLIAHTSFVRSLSHYIANQPHPEERALALGSQMVRDEGPLPGATKVDKVVNLLEKYGFAPTQAGTEIQLLTCPVLDSAVRHPEVVCTMHRGILNEITGNNTTFILEPFARPGMCVIRTVSPTANPTQT”, which “soluble on expression in E. coli” value is on record?
Its value is “not soluble”.

With “VSMDELDPHVARALTLAARFQSALDGTLNQMNNGSFRATDEAETVEVTINGHQWLTGLRIEDGLLKKLGAEAVAQRVNEALHNAQAAASAYNDAAGEQLTAALSAMSRAMNEGMA” as the sequence, how does the “soluble on expression in E. coli” value read?
Its value is “soluble”.

Which “soluble on expression in E. coli” value does the source give for “MAGDPMLNSFKLSLQYILPKLWLTRLAGWGASKRAGWLTKLVIDLFVKYYKVDMTEAQKPDTASYRTFNDFFVRPLRDDVRPLNTDPNILVMPADGVISQLGRIEEDKILQAKGHNYSLEALLAGNYLMADKFRNGTFVTTYLSPRDYHRVHMPCNGILREMIYVPGDLFSVNHLTAQNVPNLFARNERVICLFDTEFGPMAQILVGATIVGSIETVWAGTITPPREGIIKRWTWPEGEHEGSVALLKGQEMGRFKLGSTVINLFAPGKVNLIASLASLSVTKIGQPLATSTETFVAPEVEPAPLPAEEIKAEHDASPLVDNKKDDTLEHHHHHH” here?
The value was “soluble”.

For “MGSDKIHHHHHHMKNAAISDSTLVSQYIQGNEEAFAELIKRHKSKVYSTIYLIVKDRYLAEDLLQDVFIKVIHKMKGGQYNDEGKFLPWVVRIAHNLAIDYFRRNKRYPTIVMDEGMNIFNSLNFSEDSTESIQIKGENEALIRSLIHKLPESQREVVLMRHFSDMSFQEIADSTGVSINTALGRMRYALINLRKELTKQPKPIVYDKNVYPK”, which “soluble on expression in E. coli” value is on record?
Its value is “not soluble”.
